Measured values published in PMC5452035 (2017).
Non-standard residues stand in square brackets, D forms with d. No end group written: not given here. pT = C[C@@H](OP(=O)(O)O)[C@H](N)C(=O)O; FAM = 5,6-carboxyfluorescein

Target: T1, Rtt103p CID Q19A (Saccharomyces cerevisiae)
T1 chain: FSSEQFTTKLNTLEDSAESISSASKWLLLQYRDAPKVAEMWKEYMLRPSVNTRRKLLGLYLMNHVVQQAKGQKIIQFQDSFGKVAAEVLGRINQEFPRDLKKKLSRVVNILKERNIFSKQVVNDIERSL
Test: FP

B1: FAM-PSYSP(pT)SPSYSPTSPS (peptide)
peptide: {FAM}-PSYSP[pT]SPSYSPTSPS
Kd: 48 µM
